# In patent US20110300138A1 (published 2011):
# Assays:
# Assay in all cases: cell-based or functional assay
# [1] = biological target: human TSHR (thyroid stimulating hormone receptor) expressed in transfected CHO cells (human) (UniProt P16473)
# [2] = biological target: human TSH receptor (wild type), expressed on transfected CHO cells (human) (UniProt P16473)
# [3] = biological target: human TSH receptor (TSHR), wild type, expressed in CHO cells (human) (UniProt P16473)
# [4] = biological target: human TSH receptor (full length, wild type) expressed in CHO cells (human) (UniProt P16473)
# [5] = biological target: human TSHR expressed in CHO cells (human) (UniProt P16473)
# [6] = biological target: human TSHR (wild type, full length) expressed in CHO cells (human) (UniProt P16473)
substance,measurement,setting,value
9D33 IgG (antibody),% Inhibition; 3 ng/mL M22 IgG + 0.001 µg/mL 9D33 IgG,[1],9%
same,% Inhibition; 3 ng/mL M22 IgG + 0.01 µg/mL 9D33 IgG,[1],2%
same,% Inhibition; 3 ng/mL M22 IgG + 0.1 µg/mL 9D33 IgG,[1],66%
same,% Inhibition; 3 ng/mL M22 IgG + 1 µg/mL 9D33 IgG,[1],93%
same,% Inhibition; 3 ng/mL M22 IgG + 10 µg/mL 9D33 IgG,[1],94%
same,% Inhibition; 3 ng/mL M22 IgG + 100 µg/mL 9D33 IgG,[1],95%
same,Cyclic AMP concentration; 3 ng/mL M22 IgG + 0.001 µg/mL 9D33 IgG,[1],19.4 pmol/mL
same,Cyclic AMP concentration; 3 ng/mL M22 IgG + 0.01 µg/mL 9D33 IgG,[1],21 pmol/mL
same,Cyclic AMP concentration; 3 ng/mL M22 IgG + 0.1 µg/mL 9D33 IgG,[1],7.19 pmol/mL
same,Cyclic AMP concentration; 3 ng/mL M22 IgG + 1 µg/mL 9D33 IgG,[1],1.48 pmol/mL
same,Cyclic AMP concentration; 3 ng/mL M22 IgG + 10 µg/mL 9D33 IgG,[1],1.2 pmol/mL
same,Cyclic AMP concentration; 3 ng/mL M22 IgG + 100 µg/mL 9D33 IgG,[1],1.01 pmol/mL
same,Cyclic AMP concentration; 100 µg/mL 9D33 IgG,[1],1.31 pmol/mL
same,% Inhibition; 9D33 IgG 0.01 µg/mL + T11,[2],17.1%
same,% Inhibition; 9D33 IgG 0.1 µg/mL + T11,[2],50.4%
same,% Inhibition; 9D33 IgG 1 µg/mL + T11,[2],87.7%
same,% Inhibition; 9D33 IgG 10 µg/mL + T11,[2],90.1%
same,% Inhibition; 9D33 IgG 100 µg/mL + T11,[2],94.8%
same,Cyclic AMP concentration; 9D33 IgG 0.01 µg/mL + T11,[2],20.9 pmol/mL
same,Cyclic AMP concentration; 9D33 IgG 0.1 µg/mL + T11,[2],12.5 pmol/mL
same,Cyclic AMP concentration; 9D33 IgG 1 µg/mL + T11,[2],3.1 pmol/mL
same,Cyclic AMP concentration; 9D33 IgG 10 µg/mL + T11,[2],2.5 pmol/mL
same,Cyclic AMP concentration; 9D33 IgG 100 µg/mL + T11,[2],2.1 pmol/mL
same,Cyclic AMP concentration; 9D33 IgG 100 µg/mL alone,[2],1.3 pmol/mL
same,% Inhibition of constitutive activity; 0.001 µg/mL 9D33 IgG,[3],0%
same,% Inhibition of constitutive activity; 0.01 µg/mL 9D33 IgG,[3],0%
same,% Inhibition of constitutive activity; 0.1 µg/mL 9D33 IgG,[3],0%
same,% Inhibition of constitutive activity; 0.3 µg/mL 9D33 IgG,[3],0%
same,% Inhibition of constitutive activity; 1 µg/mL 9D33 IgG,[3],0%
same,% Inhibition of constitutive activity; 3 µg/mL 9D33 IgG,[3],0%
same,% Inhibition of constitutive activity; 10 µg/mL 9D33 IgG,[3],0%
same,% Inhibition of constitutive activity; 100 µg/mL 9D33 IgG,[3],0%
same,Cyclic AMP concentration (constitutive activity); 0.001 µg/mL 9D33 IgG,[3],18.8 pmol/mL
same,Cyclic AMP concentration (constitutive activity); 0.01 µg/mL 9D33 IgG,[3],20.3 pmol/mL
same,Cyclic AMP concentration (constitutive activity); 0.1 µg/mL 9D33 IgG,[3],23.9 pmol/mL
same,Cyclic AMP concentration (constitutive activity); 0.3 µg/mL 9D33 IgG,[3],26.4 pmol/mL
same,Cyclic AMP concentration (constitutive activity); 1 µg/mL 9D33 IgG,[3],35.5 pmol/mL
same,Cyclic AMP concentration (constitutive activity); 3 µg/mL 9D33 IgG,[3],32.3 pmol/mL
same,Cyclic AMP concentration (constitutive activity); 10 µg/mL 9D33 IgG,[3],34.3 pmol/mL
same,Cyclic AMP concentration (constitutive activity); 100 µg/mL 9D33 IgG,[3],38 pmol/mL
same,% Inhibition; T1 serum + 100 µg/mL 9D33 IgG,[4],95.4%
same,% Inhibition; T2 serum + 100 µg/mL 9D33 IgG,[4],96.8%
same,% Inhibition; T3 serum + 100 µg/mL 9D33 IgG,[4],94.2%
same,Cyclic AMP concentration; 100 µg/mL 9D33 IgG alone,[4],2.1 pmol/mL
same,Cyclic AMP concentration; HBD + 100 µg/mL 9D33 IgG,[4],1.9 pmol/mL
same,Cyclic AMP concentration; T1 serum + 100 µg/mL 9D33 IgG,[4],4.6 pmol/mL
same,Cyclic AMP concentration; T2 serum + 100 µg/mL 9D33 IgG,[4],2 pmol/mL
same,Cyclic AMP concentration; T3 serum + 100 µg/mL 9D33 IgG,[4],3.7 pmol/mL
same,% Inhibition; 3 ng/mL pTSH + 0.001 µg/mL 9D33 IgG,[5],13%
same,% Inhibition; 3 ng/mL pTSH + 0.01 µg/mL 9D33 IgG,[5],5%
same,% Inhibition; 3 ng/mL pTSH + 0.1 µg/mL 9D33 IgG,[5],28%
same,% Inhibition; 3 ng/mL pTSH + 1 µg/mL 9D33 IgG,[5],67%
same,% Inhibition; 3 ng/mL pTSH + 10 µg/mL 9D33 IgG,[5],87%
same,% Inhibition; 3 ng/mL pTSH + 100 µg/mL 9D33 IgG,[5],95%
same,% Inhibition of T5 serum stimulation; 0.01 µg/mL 9D33 IgG,[6],23%
same,% Inhibition of T5 serum stimulation; 0.1 µg/mL 9D33 IgG,[6],55.7%
same,% Inhibition of T5 serum stimulation; 1 µg/mL 9D33 IgG,[6],93.6%
same,% Inhibition of T5 serum stimulation; 10 µg/mL 9D33 IgG,[6],96.4%
same,% Inhibition of T5 serum stimulation; 100 µg/mL 9D33 IgG,[6],95.3%
same,Cyclic AMP concentration; 0.01 µg/mL 9D33 IgG + T5,[6],49.2 pmol/mL
same,Cyclic AMP concentration; 0.1 µg/mL 9D33 IgG + T5,[6],28.3 pmol/mL
same,Cyclic AMP concentration; 1 µg/mL 9D33 IgG + T5,[6],4.1 pmol/mL
same,Cyclic AMP concentration; 10 µg/mL 9D33 IgG + T5,[6],2.3 pmol/mL
same,Cyclic AMP concentration; 100 µg/mL 9D33 IgG + T5,[6],3 pmol/mL
same,Cyclic AMP concentration; 100 µg/mL 9D33 IgG alone,[6],2.4 pmol/mL
